Reference: paper PMC9721465, “PFK2/FBPase-2 is a potential target for metabolic engineering in the filamentous fungus Myceliophthora thermophila” (Frontiers in Microbiology, 2022)

Experiments:
[1] = substrate: O=P(O)(O)OC[C@H]1O[C@@](CO)(OP(=O)(O)O)[C@@H](O)[C@@H]1O; test: FBPase-2 assay, product/substrate by LC-MS/MS; assay type: biochemical, Thermothelomyces thermophilus; conditions: pH 7, 30 °C, 1 mM ATP, 2 mM MgCl2, 5 mM KPi
Excerpt: FBPase-2 assay, product/substrate by LC-MS/MS on PFK2-A

[2] = substrate: Nc1ncnc2c1ncn2[C@@H]1O[C@H](COP(=O)(O)OP(=O)(O)OP(=O)(O)O)[C@@H](O)[C@H]1O; test: PFK2 assay, fru-2,6-P2 quantified by activation of potato PPi-PFK, spectrophotometric; assay type: biochemical, Thermothelomyces thermophilus; conditions: co-substrate F6P
Excerpt: PFK2 assay, fru-2,6-P2 quantified by activation of potato PPi-PFK, spectrophotometric on PFK2-C

B1: PFK2-A (Thermothelomyces thermophilus ATCC 42464) (protein)
chain: MAPKINGTGVMPEDTRICVVMVGLPARGKSYIAQRAQRYLKWLSIPAKTFNVGNYRRKDAPHPSADFFDTNNAEGERQRRAAANAAVTDMIQWFKTGGVVGILDATNSTKERRKWVLERLSKEGIEVLFVESKCDDEELIMANIRDVKTTSPDYQGQDPEQAALDFRERIRHYEKVYKSINDDNDEDHLTYLKIMNVGKKVFINRIQDYLQSRVVYFLMNLHIRPRSVWLSRHGESEYNLEGRIGGDSLLSHRGEEYARKLPELVRQSVGSDRPLTVWTSTLKRTIATARHLPKHYNQLQWKALDELDAGVCDGLTYQEIADQYPEDFQARDEDKYNYRYRGGESYRDVVIRLEPIIMELERSENILIISHQAVIRCIYAYFMQKPQEESPWVPVPLHTLIKLTPRAYDTLVEKYDAKIKAVSTWRGKGSTAKHEDPTPEGGI
notes: pET32a expression in E. coli Rosetta (DE3), His-Trap purified; cDNA-encoded
Km [1]: 3810 ± 220 µM

B2: PFK2-C (Thermothelomyces thermophilus ATCC 42464) (protein)
chain: MPEPLQPSFFHVAASGSDPRPSESACQREDAAVAPQSSSLTLRKLAMSHRMGATASDPSSPTIQAIGDSHHGAETHPLHSVLPSPALTNALKESLRTAGAGQSGPPIGVPNGLHFDSPYSRSISSTAPGSPRIPPVRQNSGSHTPRIRPHATTLNIPGMTRSRASPDGRIPDRDVAAKLVIIMVGLPARGKSYITKKIQRYLSWQQHNTKIFNVGNRRRIAAGMVNPTDASPTNAANGHDVPSQAATILSKGTKGPDIVVEEPTALDLNKGKPVPKMDQSAAFFDPKNEAAAKLREQVALDTLDELLTYLLHQGGAVGILDATNSTIQRRKLLVERIKAREPKLGILFIESVCHDQNLLEANMRLKLFGPDYKDQDPHMALEDFKKRVAAYESAYEPLGKWEEDNDLQYIQMIDVGRKIIQHRLRGFLSGGIVSYLTTFNLSPRQIWITRHGQSEDNRAHRLGGDSELTERGHYYGQALYNFITYKRKEWLIQQKNKIASSNFPPQPGDNTPPYPELFQELDDKNFCVWTSMLKRSIETAEYFEADDDYDVKAWEMLNEMNAGAFEGMTYEEIAEKYPEEFEKRARDKLQYIYPGLGGEGYLQIISRLRDMVREIERITDHVLIIGHRSVCRVLMAYFMDLTRDDIADLDMPLGMLYAIEPKPYGIEFHAYKYNEETFWFDELPNYKPRKTVDRNS
notes: pET28a expression in E. coli (BL21/Rosetta DE3), His-Trap purified; cDNA-encoded
Km [2]: 940 ± 150 µM
